This is an account of results in patent CN113173994A (SHENZHEN INNOVA NANOBODI CO LTD, dated 2021).

Assay [1] has as its target T1, 重组AFP抗原(爱必信生物，货号Abt-P-208，GenbankID:174) (UniProt P02771 19-609, limits assumed).
T1 construct: Bought recombinant antigen; also called 甲胎蛋白; α-fetoprotein
T1 sequence (looked up): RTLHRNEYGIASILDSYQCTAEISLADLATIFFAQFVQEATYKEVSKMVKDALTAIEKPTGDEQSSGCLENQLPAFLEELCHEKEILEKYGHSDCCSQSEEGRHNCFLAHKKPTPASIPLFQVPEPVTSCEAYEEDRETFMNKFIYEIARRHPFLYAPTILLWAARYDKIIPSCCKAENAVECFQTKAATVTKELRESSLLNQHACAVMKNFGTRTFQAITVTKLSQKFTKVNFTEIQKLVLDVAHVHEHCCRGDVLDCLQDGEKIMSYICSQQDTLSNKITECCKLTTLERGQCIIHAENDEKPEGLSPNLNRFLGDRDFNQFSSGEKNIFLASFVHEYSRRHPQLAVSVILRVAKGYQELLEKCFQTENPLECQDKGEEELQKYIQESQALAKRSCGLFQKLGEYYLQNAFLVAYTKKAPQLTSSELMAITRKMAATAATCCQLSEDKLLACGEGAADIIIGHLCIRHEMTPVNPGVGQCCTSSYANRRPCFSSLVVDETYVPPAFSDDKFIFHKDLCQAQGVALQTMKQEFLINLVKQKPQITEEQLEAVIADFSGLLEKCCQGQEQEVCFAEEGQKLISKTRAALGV
Put plainly: ELISA additivity test on coated AFP. (In an ELISA, binding on a coated surface is turned into a signal by an enzyme label.)

Assay [2] concerns the target T2, 血清标本中的AFP抗原 (UniProt P02771 19-609).
T2 construct: also called 质控血清AFP; 标准血清中的AFP
T2 sequence (looked up): T1 sequence (looked up)
Put plainly: double-antibody sandwich chemiluminescence assay, detection antibody.

B1: 纳米抗体1C5 (VHH)
VHH: QVQLQESGGGLVQAGGSLRLSCKASERTFSSYSMAWYRQAPGKKREFVASISWDDERTYYTDSVKGRFTISRPNAKNTVYLQMNSLKPEDTAVYYCAVGGLSDGLGPSYDYWGQGTQVTVSS
For the molecule B1, the binding result in assay [1] is on record as “binds”.

B2: 带有化学发光区序列的纳米抗体1C5-HAP (other)
chain: QVQLQESGGGLVQAGGSLRLSCKASERTFSSYSMAWYRQAPGKKREFVASISWDDERTYYTDSVKGRFTISRPNAKNTVYLQMNSLKPEDTAVYYCAVGGLSDGLGPSYDYWGQGTQVTVSSGGGGSGGGGSGGGGSIIPVEEENPDFWNREAAEALGAAKKLQPAQTAAKNLIIFLGDGMGVSTVTAARILKGQKKDKLGPEIPLAMDRFPYVALSKTYNVDKHVPDSGATATAYLCGVKGNFQTIGLSAAARFNQCNTTRGNEVISVMNRAKKAGKSVGVVTTTRVQHASPAGTYAHTVNRNWYSDADVPASARQEGCQDIATQLISNMDIDVILGGGRKYMFRMGTPDPEYPDDYSQGGTRLDGKNLVQEWLAKRQGARYVWNRTELMQASLDPSVTHLMGLFEPGDMKYEIHRDSTLDPSLMEMTEAALRLLSRNPRGFFLFVEGGRIDHGHHESRAYRALTETIMFDDAIERAGQLTSEEDTLSLVTADHSHVFSFGGYPLRGSSIFGLAPGKARDRKAYTVLLYGNGPGYVLKDGARPDVTESESGSPEYRQQSAVPLDEETHAGEDVAVFARGPQAHLVHGVQEQTFIAHVMAFAACLEPYTACDLAPPAGTTD
notes: Expressed in 293 cells
With B2, the binding result in assay [2] was “binds”.
